Data as given in publication PMC3276575, “Structural and Functional Insights into the Pilotin-Secretin Complex of the Type II Secretion System” (PLoS Pathogens, 2012).
Where a chain is given by its changes, count along the chain named. Ends that are not written are not given here.

Legend:
pilotin (OutS) = test: 3JHNHA NMR spectra of secretin peptide with pilotin; type: binding, Dickeya dadantii; conditions: presence of pilotin, 15°C
Method: (§1) Samples of 0.05 to 0.5 mM labelled proteins in 90% H2O, 10% ^2H2O containing 20 mM Tris (pH 7.0) and 150 mM NaCl. All NMR spectra were acquired at 15°C using Bruker Avance 700- and 600-MHz spectrometers. Assignment of ^1H, ^15N, and ^13C resonances of the backbone was achieved by analysis of HNCACB, CBCA (CO)NH triple resonance experiments.
Supplementary file ppat.1002531.s005.doc: Figure S5 3JHNHA spectra of ^15N-labelled secretin peptide (OutD^680–710) in the absence (red) and presence (black) of pilotin (OutS). The spectra were acquired using a Bruker 700 MHz spectrophotometer at measured at 15°C. […] The 3JHNHA coupling constant was calculated according to measurement of the diagonal-peak to cross-peak intensity ratio in a 3D ^15N separated quantitative J-correlation spectra. […] (DOC) Click here for additional data file.

non-lipidated OutS = test: GST pull-down assay; type: binding, Dickeya dadantii
Method: (§2) Figure S6. Reducing environment prevents interaction of OutS with the C-terminal peptide of OutD. […] Soluble cell extracts of E. coli BL21(DE3) producing either GST alone (lane 1) or GST-OutD649-710 (lanes 2 and 3) were combined with a periplasmic extract containing non-lipidated OutS, then loaded on Glutathione Agarose for 1 h and washed. The incubations were performed in either TBS (lanes 1 and 2) or TBS with 5 mM DTT (lane 3). Bound proteins were eluted with Laemmli sample buffer, separated by Tricine-SDS-PAGE and either stained (upper panel) or probed with OutS antibodies (lower panel). Asterisk indicates a degradation product of GST-OutD649-710. […] The region coding for mature OutS (residues […]) was fused to the C-terminus of T18 subunit of Cya (pUT18-OutS) and the region coding for GST-OutD649-710 was fused to the C-terminus of T25 subunit of Cya (pKT25-GST-Dct). When pUT18-OutS and pKT25-GST-Dct were coexpressed in E. coli DHP1 cya strain, the coresponding fusion proteins were well produced as shown by immunoblotting with anti-OutS and anti-GST antibodies, respectively. […] is indicated by a dot and T25-GST-Dct by a triangle.

OutS = test: Bacterial two-hybrid assay; type: cell-based, Dickeya dadantii
Method: as §2

secretin = test: Effect of pilotin binding-surface mutations on secretin binding; design: species or system Dickeya dadantii; conditions: in words
Text: The pET-20b(+) plasmid expressing non-lipidated OutS (residues 26 to 132) fused to N-terminal PelB signal peptide has been constructed previously at a manner as the sequence of mature non-lipidated OutS after cleavage by the signal peptidase LepB is: MDP^26VKNT etc. To fuse a C-terminal 6His tag to non-lipidated OutS, SalI site was introduced at the end of outS sequence by using the primer (5′-ctt gac gcc atg cgc acc gtc gac tga ggg gga agc aac tgc) and the reverse complementary one (mutated bases are underlined). Then, by SalI/XhoI digestion the sequence coding for non-lipidated OutS was fused with that coding for 6His. Mutants of OutS were made using Strategene QuikChange and confirmed by sequencing.
Fluorescence data were collected using a Jasco FP-6300 Spectrofluorometer. To avoid exciting tyrosyl side chains, an excitation wavelength of 290 nm was used. Emission spectra were recorded at 15°C in steps of 2 nm from 310 to 400 nm. The fluorescence signal at 340 nm was plotted to calculate K d. Pilotin spectra was measured at 1 µM. 50 µM of secretin peptide prepared in 1 µM pilotin was titrated into pilotin solution (for more information see also Table S1 and reference).

[1] = target: T1, non-lipidated pilotin OutS (residues 26 to 132) of Dickeya dadantii (Dickeya dadantii, UniProt Q01567 26-132, disulfide bridge Cys 61-Cys 115); test: NMR titration; 1H-15N HSQC of 15N-labelled pilotin (100 µM), unlabelled secretin peptides titrated in; 15°C, 20 mM Tris pH 7.0, 150 mM NaCl; conditions: both partners purified
T1 chain: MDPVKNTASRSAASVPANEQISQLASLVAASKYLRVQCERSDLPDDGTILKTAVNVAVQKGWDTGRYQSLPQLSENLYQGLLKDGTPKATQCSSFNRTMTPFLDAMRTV

[2] = NMR 1H-15N HSQC of free secretin peptide (disorder); type: physicochemical; conditions: 20 mM Tris pH 7.0, 150 mM NaCl, 15°C, 700 MHz
Method: as §1
(§3) Supplementary file ppat.1002531.s004.doc: Figure S4 The C-terminus of the 62 residue secretin peptide ([…]) is unstructured. ^1H-^15N HSQC spectra of recombinantly produced ^15N-labelled secretin peptide (70 µM peptide in 20 mM Tris pH 7.0 with 150 mM NaCl at 15°C) acquired using a Bruker 700 MHz spectrophotometer. […] The spectra are cleaner than those shown previously (Figure S2 and S3) because the spectra were acquired quickly. […] (DOC) Click here for additional data file.

[3] = Cleavage of secretin peptide during lengthy NMR experiments; type: physicochemical; conditions: during more lengthy NMR experiments; 20 mM Tris pH 7.0, 150 mM NaCl, 15°C
Method: as §3

pilotin = conditions: ref [11]; cited from earlier work
Text: This secretin peptide was produced with ^15N-label as a fusion to GST and then released with PreScision protease.

[4] = target: T1, non-lipidated pilotin OutS (residues 26 …); test: other fluorescence titration; quenching of the single tryptophan of pilotin (1 µM) on titration with 50 µM secretin peptide in 1 µM pilotin; excitation 290 nm, signal at 340 nm, 15°C; conditions: both partners purified

Molecule: OutD^680–710: 15N-labelled secretin peptide (OutD680–710) (DNNTLRLSGGNTYTFRQVQSSISDFYKPEGR; also: 15N-labelled; UniProt Q01565 680-710, looked up, fragment)
- residues of secretin peptide that become helical on binding (pilotin (OutS)): at least four

B1: OutS: Dickeya dadantii type II secretion system pilotin, non-lipidated (residues 26 to 132), UniProt Q01567 (protein)
chain: CQTPAPVKNTASRSAASVPANEQISQLASLVAASKYLRVQCERSDLPDDGTILKTAVNVAVQKGWDTGRYQSLPQLSENLYQGLLKDGTPKATQCSSFNRTMTPFLDAMRTVR
- binding to cognate secretin with reducing agent, pull-down (non-lipidated OutS; reducing agent, non-lipidated OutS with GST-OutD649–710): unable to bind the cognate secretin
- binding to cognate secretin with reducing agent, two-hybrid (OutS; bacterial two-hybrid): unable to bind the cognate secretin

B2: OutS_L100A (protein, UniProt Q01567 21-133, looked up, variant L100A)
Pilotin OutS: B1 chain with L80A
- effect of mutation on binding (secretin): substantial effect on binding

B3: OutS_L96A (protein, UniProt Q01567 21-133, looked up, variant L96A)
Pilotin OutS: B1 chain with L76A
- effect of mutation on binding (secretin): substantial effect on binding

B4: OutS_Q114A (protein, UniProt Q01567 21-133, looked up, variant Q114A)
Pilotin OutS: B1 chain with Q94A
- effect of mutation on binding (secretin): substantial effect on binding

B5: OutS_S49R (protein, UniProt Q01567 21-133, looked up, variant S49R)
Pilotin OutS: B1 chain with S29R
- effect of mutation on binding (secretin): profound effect on binding

B6: 62 residue C-terminal secretin peptide (OutD residues 649-710) (peptide)
chain: DPGQFQEASINKYRSFNNEQQQQRGEGNGVLDNNTLRLSGGNTYTFRQVQSSISDFYKPEGR
notes: secretin OutD, Dickeya dadantii, C-terminal 62 residues (649-710); 15N-labelled in one titration, unlabelled in the other; The peptide is slowly cleaved; also called 62 residue secretin peptide; OutD^648–710; source: E. coli BL21(DE3), purified as GST fusion, released with PreScision protease; not shown: GST, N-terminal, cleaved
- stoichiometry N [1]: 1

B7: 62 residue secretin peptide: C-terminal 62 residues of the secretin, produced as a fusion to GST and released with PreScision protease (protein)
chain: B6 chain
modifications: left off: GST, N-terminal, cleaved
notes: C-terminal 62 residues of the secretin, produced as a fusion to GST and released with PreScision protease
- structure in solution (dispersion of backbone amides) [2]: intrinsically unstructured
- structure in solution (dispersion of backbone amides) ([2]; listed as C-terminal 62 residues): unstructured in solution
- cleavage of peptide [3]: slowly cleaved
- binding to pilotin (pilotin): bound to the pilotin

B8: GST-OutD649-710: C-terminal segment of OutD fused to GST; in two-hybrid fused to C-terminus of T25 subunit of Cya (protein)
chain: B6 chain
modifications: not fully specified (N-terminus); also: fused to GST
notes: C-terminal segment of OutD fused to GST; in two-hybrid fused to C-terminus of T25 subunit of Cya
- binding in GST pull-down (non-lipidated OutS; reducing conditions, TBS with 5 mM DTT, 1 h on Glutathione Agarose): does not bind
- colony colour in bacterial two-hybrid assay (OutS; MacConkey-maltose agar, known interacting couple used as positive control): white colonies
- interaction in bacterial two-hybrid assay (OutS; reducing conditions of the bacterial cytoplasm, T25/T18 fusions, E. coli DHP1 cya, MacConkey-maltose agar): does not interact

B9: 18 residue synthetic secretin peptide (OutD residues 691 to 708 inclusive) (peptide)
peptide: TYTFRQVQSSISDFYKPE
notes: secretin OutD, Dickeya dadantii, residues 691 to 708 inclusive; also called 18 residue secretin peptide; OutD^691–708; source: synthetic peptide, bought: Generon
- Kd [4]: 55 ± 20 nM
- stoichiometry N [4]: 1
